Changes are numbered by the printed parent chain. Names may count otherwise.
T1: TNFR1 (Homo sapiens, UniProt P19438)
T1 chain: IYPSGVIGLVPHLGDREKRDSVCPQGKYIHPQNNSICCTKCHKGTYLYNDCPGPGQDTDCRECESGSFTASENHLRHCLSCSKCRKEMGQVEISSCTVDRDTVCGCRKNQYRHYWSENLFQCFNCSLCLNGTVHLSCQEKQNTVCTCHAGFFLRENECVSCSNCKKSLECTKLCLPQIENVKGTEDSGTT

B1: H24T (designed binder)
chain: SMEEEVEKAAKEYEKKKKEAIEKTLEKLKAKDKEAAERFLKELEEAAKEYAKDEAKTMSEEEAKRRAKKYKEKVLLSELSEEEQKEIKEAEEKLVRTILKYVEEAAK
B2: E62Y (designed binder)
chain: B1 chain with T24H, E62Y
B3: K11L (designed binder)
chain: B1 chain with K11L, T24H
B4: A36I (designed binder)
chain: B1 chain with T24H, A36I
B5: E60A (designed binder)
chain: B1 chain with T24H, E60A
B6: E78Y (designed binder)
chain: B1 chain with T24H, E78Y
B7: K41Y (designed binder)
chain: B1 chain with T24H, K41Y
B8: M58A (designed binder)
chain: B1 chain with T24H, M58A
B9: K93V (designed binder)
chain: B1 chain with T24H, K93V
B10: A55H (designed binder)
chain: B1 chain with T24H, A55H
B11: K71A (designed binder)
chain: B1 chain with T24H, K71A
B12: A55R (designed binder)
chain: B1 chain with T24H, A55R
B13: E37W (designed binder)
chain: B1 chain with T24H, E37W
B14: A20Y (designed binder)
chain: B1 chain with A20Y, T24H
B15: D53E (designed binder)
chain: B1 chain with T24H, D53E
B16: E45K (designed binder)
chain: B1 chain with T24H, E45K
B17: E19A (designed binder)
chain: B1 chain with E19A, T24H
B18: K64V (designed binder)
chain: B1 chain with T24H, K64V
B19: V6R (designed binder)
chain: B1 chain with V6R, T24H
B20: E26W (designed binder)
chain: B1 chain with T24H, E26W
B21: E104F (designed binder)
chain: B1 chain with T24H, E104F
B22: K85C (designed binder)
chain: B1 chain with T24H, K85C
B23: S77M (designed binder)
chain: B1 chain with T24H, S77M
B24: E26A (designed binder)
chain: B1 chain with T24H, E26A
B25: T97I (designed binder)
chain: B1 chain with T24H, T97I
B26: K33W (designed binder)
chain: B1 chain with T24H, K33W
B27: T57H (designed binder)
chain: B1 chain with T24H, T57H
B28: L79R (designed binder)
chain: B1 chain with T24H, L79R
B29: K27Y (designed binder)
chain: B1 chain with T24H, K27Y
B30: Q84I (designed binder)
chain: B1 chain with T24H, Q84I
B31: L76C (designed binder)
chain: B1 chain with T24H, L76C
B32: A47P (designed binder)
chain: B1 chain with T24H, A47P
B33: S59P (designed binder)
chain: B1 chain with T24H, S59P
B34: K68I (designed binder)
chain: B1 chain with T24H, K68I
B35: K23W (designed binder)
chain: B1 chain with K23W, T24H
B36: K56I (designed binder)
chain: B1 chain with T24H, K56I
B37: A106C (designed binder)
chain: B1 chain with T24H, A106C
B38: E92V (designed binder)
chain: B1 chain with T24H, E92V
B39: R96L (designed binder)
chain: B1 chain with T24H, R96L
B40: E12F (designed binder)
chain: B1 chain with E12F, T24H
B41: V102H (designed binder)
chain: B1 chain with T24H, V102H
B42: D53M (designed binder)
chain: B1 chain with T24H, D53M
B43: F39R (designed binder)
chain: B1 chain with T24H, F39R
B44: L79T (designed binder)
chain: B1 chain with T24H, L79T
B45: L94Y (designed binder)
chain: B1 chain with T24H, L94Y
B46: E91N (designed binder)
chain: B1 chain with T24H, E91N
B47: A55N (designed binder)
chain: B1 chain with T24H, A55N
B48: R96W (designed binder)
chain: B1 chain with T24H, R96W
B49: L25Q (designed binder)
chain: B1 chain with T24H, L25Q
B50: E61D (designed binder)
chain: B1 chain with T24H, E61D
B51: L75G (designed binder)
chain: B1 chain with T24H, L75G
B52: K71V (designed binder)
chain: B1 chain with T24H, K71V
B53: A20F (designed binder)
chain: B1 chain with A20F, T24H
B54: K18I (designed binder)
chain: B1 chain with K18I, T24H
B55: E83D (designed binder)
chain: B1 chain with T24H, E83D
B56: E12L (designed binder)
chain: B1 chain with E12L, T24H
B57: K31D (designed binder)
chain: B1 chain with T24H, K31D
B58: L40W (designed binder)
chain: B1 chain with T24H, L40W
B59: I87H (designed binder)
chain: B1 chain with T24H, I87H

Molecular target: T1, TNFR1
Test: yeast display SC50

apparent Kd (screen)	Binder
1.16 nM	B1
0.869 nM	B2
0.49 nM	B3
1.54 nM	B4
0.956 nM	B5
0.446 nM	B6
0.446 nM	B7
10.4 nM	B8
1.16 nM	B9
12.5 nM	B10
0.446 nM	B11
1.05 nM	B12
0.49 nM	B13
0.446 nM	B14
0.718 nM	B15
12.5 nM	B16
0.869 nM	B17
0.653 nM	B18
0.653 nM	B19
1.05 nM	B20

apparent Kd (screen)	Binder
0.593 nM	B21
0.539 nM	B22
1.4 nM	B23
1.05 nM	B24
2.05 nM	B25
0.869 nM	B26
0.277 nM	B27
13.8 nM	B28
0.593 nM	B29
2.73 nM	B30
3 nM	B31
10.4 nM	B32
0.446 nM	B33
0.869 nM	B34
0.956 nM	B35
2.73 nM	B36
3 nM	B37
12.5 nM	B38
0.718 nM	B39
0.539 nM	B40

apparent Kd (screen)	Binder
0.49 nM	B41
4.83 nM	B42
5.84 nM	B43
1.86 nM	B44
0.446 nM	B45
0.653 nM	B46
11.4 nM	B47
2.05 nM	B48
1.54 nM	B49
1.05 nM	B50
0.368 nM	B51
0.446 nM	B52
0.446 nM	B53
0.653 nM	B54
1.16 nM	B55
0.49 nM	B56
0.956 nM	B57
0.49 nM	B58
2.25 nM	B59

Source: PMC12416549 (2024)
